# B1: CNTF: ciliary neurotrophic factor, recombinant cytokine (protein, UniProt P26441 1-200, looked up)
# Ciliary neurotrophic factor: MAFTEHSPLTPHRRDLCSRSIWLARKIRSDLTALTESYVKHQGLNKNINLDSADGMPVASTDQWSELTEAERLQENLQAYRTFHVLLARLLEDQQVHFTPTEGDFHQAIHTLLLQVAAFAYQIEELMILLEYKIPRNEADGMPINVGDGGLFEKKLWGLKVLQELSQWTVRSIHDLRFISSHQTGIPARGSHYIANNKKM
# Legend:
# [1] = target: T1, HN receptor (HNR; CNTF-R/WSX-1/gp130) on F11 cells (Mus musculus, UniProt O70394+O88507); assay: Immunofluorescence-based binding assay (2): biotin-HN / biotin-HNG binding to F11 cells; settings: biotin-HN; F11 cells with endogenous HNR or transfected with CNTF-R/WSX-1/gp130
# T1 construct: endogenous in cells; host or cells: F11 neurohybrid cells
# T1 sequence (O70394 25-623): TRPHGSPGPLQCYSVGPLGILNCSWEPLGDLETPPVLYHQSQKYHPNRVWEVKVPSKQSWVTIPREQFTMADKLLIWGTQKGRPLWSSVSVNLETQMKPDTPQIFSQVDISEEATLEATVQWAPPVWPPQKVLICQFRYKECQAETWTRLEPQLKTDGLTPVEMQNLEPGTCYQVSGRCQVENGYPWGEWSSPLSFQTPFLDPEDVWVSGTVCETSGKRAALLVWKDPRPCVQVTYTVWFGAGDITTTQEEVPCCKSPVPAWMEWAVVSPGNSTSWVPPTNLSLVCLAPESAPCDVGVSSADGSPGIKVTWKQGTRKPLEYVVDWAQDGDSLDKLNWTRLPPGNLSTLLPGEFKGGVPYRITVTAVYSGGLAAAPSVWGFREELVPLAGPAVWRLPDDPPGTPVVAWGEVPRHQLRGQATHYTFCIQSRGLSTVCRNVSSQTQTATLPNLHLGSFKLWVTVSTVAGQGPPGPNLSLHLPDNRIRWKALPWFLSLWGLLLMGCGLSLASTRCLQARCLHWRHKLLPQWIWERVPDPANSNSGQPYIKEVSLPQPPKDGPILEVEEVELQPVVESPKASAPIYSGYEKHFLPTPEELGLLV
# T1 sequence (O88507 23-342): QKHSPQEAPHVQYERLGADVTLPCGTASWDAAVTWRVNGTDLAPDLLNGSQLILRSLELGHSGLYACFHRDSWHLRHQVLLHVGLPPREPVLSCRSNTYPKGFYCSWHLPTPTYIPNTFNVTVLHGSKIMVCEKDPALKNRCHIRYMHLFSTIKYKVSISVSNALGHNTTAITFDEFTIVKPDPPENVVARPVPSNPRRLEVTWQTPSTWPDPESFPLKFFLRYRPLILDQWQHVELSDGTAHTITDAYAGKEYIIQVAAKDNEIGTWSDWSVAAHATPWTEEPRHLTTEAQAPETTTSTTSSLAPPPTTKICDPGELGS
# T1 sequence (Q00560 23-917 partner): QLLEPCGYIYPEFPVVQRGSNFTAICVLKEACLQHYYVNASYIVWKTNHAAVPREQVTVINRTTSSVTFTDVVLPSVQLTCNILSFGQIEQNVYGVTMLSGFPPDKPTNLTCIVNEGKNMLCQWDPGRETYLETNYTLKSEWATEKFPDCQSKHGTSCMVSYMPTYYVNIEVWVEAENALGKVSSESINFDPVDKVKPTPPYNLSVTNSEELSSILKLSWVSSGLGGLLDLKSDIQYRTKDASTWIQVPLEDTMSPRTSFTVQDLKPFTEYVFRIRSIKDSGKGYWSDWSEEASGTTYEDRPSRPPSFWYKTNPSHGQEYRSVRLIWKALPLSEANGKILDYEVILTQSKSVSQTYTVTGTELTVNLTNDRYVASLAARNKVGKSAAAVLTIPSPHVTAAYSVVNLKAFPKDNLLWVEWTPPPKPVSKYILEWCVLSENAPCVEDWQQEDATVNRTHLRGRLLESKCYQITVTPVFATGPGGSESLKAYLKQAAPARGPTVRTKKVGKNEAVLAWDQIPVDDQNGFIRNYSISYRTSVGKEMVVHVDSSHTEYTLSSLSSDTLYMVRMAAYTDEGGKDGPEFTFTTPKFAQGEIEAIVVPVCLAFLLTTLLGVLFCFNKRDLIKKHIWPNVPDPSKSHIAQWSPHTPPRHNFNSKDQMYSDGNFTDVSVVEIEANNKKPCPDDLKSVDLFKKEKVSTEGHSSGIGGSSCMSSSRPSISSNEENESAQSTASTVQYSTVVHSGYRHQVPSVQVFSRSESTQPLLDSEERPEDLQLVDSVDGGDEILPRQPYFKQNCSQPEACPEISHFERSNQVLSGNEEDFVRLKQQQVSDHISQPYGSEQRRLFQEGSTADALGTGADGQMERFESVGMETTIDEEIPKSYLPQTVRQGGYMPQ
# Protocol: A) F11 cells were seeded on 96-well plates coated with poly-L-lysine (7×10^3 cells/well). An indicated amount of biotin-HN or biotin-HNG was added to the cells with or without 10 μM of unlabelled HNG or HNA, followed by a binding assay based on immunofluorescence reaction (2) (left panels). On the other hand, F11 cells were transfected with 0.5 μg of pcDNA3.1/GS-human CNTF-R, pEF1/MycHis-human WSX-1, and 1.0 μg of pCAG-human gp130. At 24 hrs after the transfection, the cells were re-seeded on 96-well plates coated with poly-L-lysine (7×10^3 cells/well). After 36 hrs the re-seeding, an indicated amount of biotin-HN or biotin-HNG was added to the cells with or without 10 μM of unlabeled HNG or HNA, followed by a binding assay based on immunofluorescence reaction (2) (right panels).
# B) F11 cells were transfected with 0.5 μg of pRNA-U1.6/Shuttle vector, pRNA-U6.1/Shuttle-WSX-1 siRNA, pRNA-U6.1/Shuttle-CNTF-R siRNA, both pRNA-U6.1/Shuttle-WSX-1 siRNA and pRNA-U6.1/Shuttle-CNTF-R siRNA (0.5 μg each), pRNA-U6.1/Shuttle-FPR2 siRNA or pRNA-U6.1/Shuttle-LIFR siRNA. The total amount of vectors was adjusted to be 1.0 μg by including a backbone vector. At 24 hrs after the transfection, an indicated amount of biotin-HNG was added with or without unlabeled HNG, followed by a binding assay based on immunofluorescence reaction (2) at 72 hrs after the transfection.
# E) F11 cells on 6-well plate (7×10^4 cells/well) were transfected with 1.0 μg of pRNA-U6.1/Shuttle vector, pRNA-U6.1/Shuttle-Bax siRNA, or both pRNA-U6.1/Shuttle-WSX-1 siRNA and pRNA-U6.1/Shuttle-CNTF-R siRNA (0.5 μg each). At 72 hrs after the transfection, the cells were added with an indicated amount of biotin-HN with or without unlabeled HN or HNA (100 μM) and subjected to an HN-binding assay based on immunofluorescence.
# F11 cells (7×10^4/well in 6-well plates) were replated into 96-well plates (7×10^3 cells/well) at 24 hrs after transfection with indicated amounts of the plasmids encoding mycHis-WSX or V5-CNTF-R, and with PCAG-human gp130 if required. At 36 hrs after transfection, the cells were added with biotin-labeled HN or HNG of indicated concentrations in the presence or the absence of HNG (S14G-HN) or HNA (C8A-HN) of indicated concentrations (Hashimoto et al., 2001 a). After 6 hrs incubation, they were fixed with 4% paraformaldehyde in PBS for 30 min. After washing with PBS, cells were stained with FITC-conjugated avidin (Molecularprobe, Eugene, Oreg., USA). Immunofluorescence intensity was measured (excitation=485 nm, emission=535 nm) with a spectrofluorometer (Wallac1420 ARVOsx Multi Label Counter). Immunohistochemical analysis was done with a laser-scanning, confocal microscope LSM (Carl Zeiss, Germany).
# [2] = system: primary cortical neurons (PCNs); assay: Aβ neurotoxicity in primary cortical neurons, WST-8 / Calcein / LDH; type: cell-based, mouse
# Protocol: B) PCNs were incubated with 25 μM Aβ (upper) in the presence of 10 μg of recombinant soluble human gp130 (lower “+”) or BSA (lower “−”). Cell viability was determined by WST-8 assay (upper) or Calcein fluorescence assay (lower) at 72 hr after the onset of treatment with Aβ.
# C) PCNs were incubated with 25 μM Aβ (1-43) in the presence of 1 μg of neutralizing anti-mouse gp130 antibody (RX435) or control IgG. Cell viability and cell mortality were determined by Calcein fluorescence (left panel) and LDH assays (right panel), respectively, at 72 hr after the onset of treatment with Aβ (1-43).
# […] At 72 hr after incubation, the cells were harvested for WST-8 assays or/and Calcein fluorescence assays to show cell viability.
# B) The soluble IL-6 receptor-α (sIL-6R) or the soluble CNTF-R (100 ng/ml) were added to the cells as in the above A), followed by the stimulation with its ligand, IL-6 or CNTF (100 ng/ml), respectively to show the effects on the neuronal cell death due to Aβ. The right and left graphs show the cell viabilities determined by WST-8 assays and Calcein fluorescence assays, respectively.
# C) The neutralizing antibodies (1 μg) for the mouse gp130, mouse LIFR, mouse IL-11R and rat CNTF-R were added as in the above A), and cell viability was determined by Calcein fluorescence assays after 72 hours.
# WST-8 assay was performed at 72 hrs after the treatment.
# The primary culture of mouse cortical neurons was prepared as described previously (Sudo et al., 2000). Briefly, primary cortical neurons, obtained from embryonic day 14 (E14) ICR mice were seeded in poly-L-lysine-coated 96 well plates (Sumitomo Bakelite) at 2.5 or 5.0×10^4 cells/well in Neuron Medium (Sumitomo Bakelite) (Hashimoto et al., 2003; Niikura et al., 2004). Purity of neurons by this method was >98%. After 3 days, the culture medium was replaced with DMEM with N2 supplement. On the fourth day in vitro, 25 μM of Aβ (1-42) was added in association with indicated concentrations of HN or cytokines in the presence or the absence of soluble cytokine receptors or neutralizing antibodies. At 72 hrs after the onset of treatment, cell viability was assessed by WST-8 assay and/or Calcein fluorescence assay and cell mortality was assessed by the Trypan blue exclusion assay and LDH assay (Hashimoto et al, 2000, 2001 a b, 2003).
# STAT3 = assay: Immunoblot of phosphotyrosine 705 of STAT3 in F11 cells; type: cell-based; settings: F11 cells, 15 min
# Protocol: E) F11 cells were transfected with an indicated amount of pRNA-U6.1/Shuttle vector (empty), pRNA-U6.1/Shuttle-IL-6R siRNA, or pRNA-U6.1/Shuttle-LIFR siRNA. At 48 hrs after transfection, the cells were treated with 100 ng/ml IL-6, 100 ng/ml CNTF or 1 μM HNG at 37° for 15 min, and harvested. The results of immunoblot analysis using anti-phophoSTAT3 ([…]) antibody and anti-STAT3 antibody were shown in photos. A) F11 cells were added with an indicated amount of HN, HNG or HNA and harvested 15 min later for immunoblot analysis with antibodies recognizing phosphotyrosine 705 of STAT3 or STAT3. The results are shown in photos. B) F11 cells were transfected with 0.5 μg of pRNA-U1.6/Shuttle vector, pRNA-U6.1/Shuttle-WSX-1 siRNA, pRNA-U6.1/Shuttle-CNTF-R siRNA, both pRNA-U6.1/Shuttle-WSX-1 siRNA and pRNA-U6.1/Shuttle-CNTF-R siRNA (0.5 μg each), or pRNA-U6.1/Shuttle-FPR2 siRNA. The total amount of vectors was adjusted to be 1.0 μg by including a backbone vector. […] The results are shown in photos. Cell lysates (10-20 μg/lane) or pulled-down precipitates were subject to SDS-PAGE, and the proteins separated on the gel were transferred onto polyvinylidene difluoride membranes as described (Hashimoto et al, 2000). Visualization of the immunoreactive protein bands was performed by ECL (Amersham Pharmacia Biotech, Uppsala, Sweden).
Molecule,Kd [1] [µM],"effect on the HN effect ([2]; PCN, 10 nM HNG, 10 μM Aβ (1-43))",mimicry of HN in neuroprotection against neuronal cell death by Aβ ([2]; cytokine 100 ng/ml with its soluble receptor (sIL-6R or soluble CNTF receptor) 100 ng/ml),"inhibition of neurotoxicity by Aβ ([2]; cytokine alone, physiological levels (up to 100 ng/ml), 25 μM Aβ)",phosphorylation of tyrosine 705 of STAT3 (STAT3)
"CC[C@H](C)[C@H](NC(=O)[C@H](CCC(=O)O)NC(=O)[C@H](CO)NC(=O)[C@@H](NC(=O)[C@H](CC(C)C)NC(=O)[C@H](CC(C)C)NC(=O)[C@H](CC(C)C)NC(=O)[C@H](CC(C)C)NC(=O)[C@H](CS)NC(=O)[C@H](CO)NC(=O)[C@H](Cc1ccccc1)NC(=O)CNC(=O)[C@H](CCCNC(=N)N)NC(=O)[C@@H]1CCCN1C(=O)[C@H](C)NC(=O)[C@@H](N)CCSC)[C@@H](C)O)C(=O)N[C@@H](CC(=O)O)C(=O)N[C@@H](CC(C)C)C(=O)N1CCC[C@H]1C(=O)N[C@H](C(=O)N[C@@H](CCCCN)C(=O)N[C@@H](CCCNC(=N)N)C(=O)N[C@@H](CCCNC(=N)N)C(=O)N[C@@H](C)C(=O)O)C(C)C [HN, Humanin]",1 to 10,–,–,–,–
B1,–,inhibited the HN effect,did not mimic HN,did not inhibit,increased

# Reference: patent publication US8173771B2, “Humanin receptor or humanin-like polypeptide receptor” (Keio Univeristy, priority 2005, dated 2012)
